Results reported in doi:10.1101/324103 (bioRxiv, 2018).

Target: the molecule itself
Assay: SEC-MALS + AUC

B1: ammonium transporter AmtB from Escherichia coli (natural protein)
chain: APAVADKADNAFMMICTALVLFMTIPGIALFYGGLIRGKNVLSMLTQVTVTFALVCILWVVYGYSLAFGEGNNFFGNINWLMLKNIELTAVMGSIYQYIHVAFQGSFACITVGLIVGALAERIRFSAVLIFVVVWLTLSYIPIAHMVWGGGLLASHGALDFAGGTVVHINAAIAGLVGAYLIGKRVGFGKEAFKPHNLPMVFTGTAILYIGWFGFNAGSAGTANEIAALAFVNTVVATAAAILGWIFGEWALRGKPSLLGACSGAIAGLVGVTPACGYIGVGGALIIGVVAGLAGLWGVTMLKRLLRVDDPCDVFGVHGVCGIVGCIMTGIFAASSLGGVGFAEGVTMGHQLLVQLESIAITIVWSGVVAFIGYKLADLTVGLRV
stoichiometry N: 3
